Assays:
PSMA TriTAC (HDS)-C363 [1] = target: T1, PSMA TriTAC (HDS)-C363; assay: BLI (Octet), cynomolgus albumin (CSA)
T1 construct: Trispecific single chain: anti-PSMA sdAb, anti-HSA sdAb, anti-CD3 scFv, 6xHis (the tag is part of the entry); also called PSMA HDS TriTAC C363; C00363

PSMA TriTAC (HTS)-C364 [2] = target: T2, PSMA TriTAC (HTS)-C364; assay: BLI (Octet), cynomolgus albumin (CSA)
T2 construct: Trispecific single chain: anti-PSMA sdAb, anti-HSA sdAb, anti-CD3 scFv, 6xHis (the tag is part of the entry); also called PSMA HTS TriTAC C364; C00364

PSMA-TriTAC (p8)-C362 [3] = target: T3, PSMA-TriTAC (p8)-C362; assay: BLI (Octet), cynomolgus albumin (CSA)
T3 construct: Trispecific single chain: anti-PSMA sdAb, anti-HSA sdAb, anti-CD3 scFv, 6xHis (the tag is part of the entry); also called PSMA p8 TriTAC C362; C00362

[4] = target: T4, TriTAC CD3 high aff. - C324; assay: BLI (Octet), cynomolgus albumin (CSA)
T4 construct: Trispecific single chain: anti-PSMA sdAb, anti-HSA sdAb, anti-CD3 scFv, 6xHis (the tag is part of the entry); also called PSMA TriTAC CD3 high aff; C00324

[5] = target: T5, Tool TriTAC high aff. - C236; assay: BLI (Octet), cynomolgus albumin (CSA)
T5 construct: Trispecific single chain: anti-PSMA sdAb, anti-HSA sdAb, anti-CD3 scFv, 6xHis (the tag is part of the entry); also called Tool PSMA TriTAC; C00236

PSMA TriTAC (HDS)-C363 [6] = target: T1, PSMA TriTAC (HDS)-C363; assay: BLI (Octet), cynomolgus PSMA
PSMA TriTAC (HTS)-C364 [7] = target: T2, PSMA TriTAC (HTS)-C364; assay: BLI (Octet), cynomolgus PSMA
PSMA TriTAC (HDS)-C363 [8] = target: T1, PSMA TriTAC (HDS)-C363; assay: BLI (Octet), cynomolgus CD3
PSMA TriTAC (HTS)-C364 [9] = target: T2, PSMA TriTAC (HTS)-C364; assay: BLI (Octet), cynomolgus CD3
PSMA-TriTAC (p8)-C362 [10] = target: T3, PSMA-TriTAC (p8)-C362; assay: BLI (Octet), cynomolgus CD3
[11] = target: T4, TriTAC CD3 high aff. - C324; assay: BLI (Octet), cynomolgus CD3
[12] = target: T5, Tool TriTAC high aff. - C236; assay: BLI (Octet), cynomolgus CD3
[13] = target: T4, TriTAC CD3 high aff. - C324; assay: BLI (Octet), human CD3-Flag-Fc on anti-human IgG Fc biosensors
PSMA TriTAC (HDS)-C363 [14] = target: T1, PSMA TriTAC (HDS)-C363; assay: as above
PSMA TriTAC (HTS)-C364 [15] = target: T2, PSMA TriTAC (HTS)-C364; assay: as above
PSMA-TriTAC (p8)-C362 [16] = target: T3, PSMA-TriTAC (p8)-C362; assay: as above
hFc · flag · hPSMA = target: T6, hFc · flag · hPSMA (human, UniProt Q04609 44-750); assay: BLI (OCTET), expression supernatants, hFc.flag.hPSMA
T6 construct: The order of the parts follows the printed label; also called human PSMA; h PSMA-Fc; not shown: human Fc (hFc); flag tag
Text: Supernatants were used to estimate Kd, kon, and koff (or kdis) to human and cynomolgus PSMA using the OCTET® system. […] The parental sdAb is listed as Anti-PSMA wt sdAb.6his in Table 1.

T6 sequence (Q04609 44-750 limits assumed): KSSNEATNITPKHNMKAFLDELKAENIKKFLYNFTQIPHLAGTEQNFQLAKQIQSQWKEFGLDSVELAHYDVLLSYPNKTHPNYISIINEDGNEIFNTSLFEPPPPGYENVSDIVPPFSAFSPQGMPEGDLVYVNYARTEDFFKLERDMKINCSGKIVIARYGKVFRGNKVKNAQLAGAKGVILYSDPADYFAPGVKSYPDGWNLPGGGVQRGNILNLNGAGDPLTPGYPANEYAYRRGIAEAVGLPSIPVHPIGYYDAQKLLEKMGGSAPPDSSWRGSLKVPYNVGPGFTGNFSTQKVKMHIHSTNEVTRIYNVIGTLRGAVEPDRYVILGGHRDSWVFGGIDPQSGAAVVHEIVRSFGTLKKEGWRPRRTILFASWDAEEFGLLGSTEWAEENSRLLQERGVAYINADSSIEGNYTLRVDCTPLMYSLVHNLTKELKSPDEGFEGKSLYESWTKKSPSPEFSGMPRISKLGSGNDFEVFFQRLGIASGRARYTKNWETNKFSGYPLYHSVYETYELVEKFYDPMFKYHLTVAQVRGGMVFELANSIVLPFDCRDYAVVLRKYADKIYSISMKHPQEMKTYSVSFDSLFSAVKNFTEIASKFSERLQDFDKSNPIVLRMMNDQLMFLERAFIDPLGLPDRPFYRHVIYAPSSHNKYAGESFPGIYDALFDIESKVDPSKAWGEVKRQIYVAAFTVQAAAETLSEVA
T3 sequence (chain, as listed by the source): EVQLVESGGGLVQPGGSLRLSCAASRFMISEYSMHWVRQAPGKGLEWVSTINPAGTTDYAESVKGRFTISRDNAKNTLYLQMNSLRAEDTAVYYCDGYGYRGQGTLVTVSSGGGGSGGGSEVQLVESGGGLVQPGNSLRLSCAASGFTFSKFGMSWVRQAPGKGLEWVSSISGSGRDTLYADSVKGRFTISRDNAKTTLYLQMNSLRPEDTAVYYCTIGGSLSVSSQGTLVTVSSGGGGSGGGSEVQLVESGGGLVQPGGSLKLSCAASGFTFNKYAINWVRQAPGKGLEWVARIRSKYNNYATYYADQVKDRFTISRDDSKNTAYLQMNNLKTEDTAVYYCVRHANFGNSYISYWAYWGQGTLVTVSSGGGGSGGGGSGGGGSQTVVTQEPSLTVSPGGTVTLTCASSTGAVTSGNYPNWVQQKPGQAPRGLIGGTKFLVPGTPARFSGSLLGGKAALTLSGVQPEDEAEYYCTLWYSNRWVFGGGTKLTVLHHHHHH

Binder	Kd (hFc · flag · hPSMA) [nM]	koff (hFc · flag · hPSMA) [s⁻¹]	kon (hFc · flag · hPSMA) [M⁻¹ s⁻¹]	also measured
CSA (other, cynomolgus, UniProt A2V9Z4 25-608, looked up, also called cynomolgus serum albumin) DTHKSEVAHRFKDLGEEHFKGLVLVAFSQYLQQCPFEEHVKLVNEVTEFAKTCVADESAENCDKSLHTLFGDKLCTVATLRETYGEMADCCAKQEPERNECFLQHKDDNPNLPPLVRPEVDVMCTAFHDNEATFLKKYLYEVARRHPYFYAPELLFFAARYKAAFAECCQAADKAACLLPKLDELRDEGKASSAKQRLKCASLQKFGDRAFKAWAVARLSQKFPKAEFAEVSKLVTDLTKVHTECCHGDLLECADDRADLAKYMCENQDSISSKLKECCDKPLLEKSHCLAEVENDEMPADLPSLAADYVESKDVCKNYAEAKDVFLGMFLYEYARRHPDYSVMLLLRLAKAYEATLEKCCAAADPHECYAKVFDEFQPLVEEPQNLVKQNCELFEQLGEYKFQNALLVRYTKKVPQVSTPTLVEVSRNLGKVGAKCCKLPEAKRMPCAEDYLSVVLNRLCVLHEKTPVSEKVTKCCTESLVNRRPCFSALELDEAYVPKAFNAETFTFHADMCTLSEKEKQVKKQTALVELVKHKPKATKEQLKGVMDNFAAFVEKCCKADDKEACFAEEGPKFVAASQAALA	–	–	–	Kd (PSMA TriTAC (HDS)-C363 [1]): 8.4 nM; Kd (PSMA TriTAC (HTS)-C364 [2]): 8.6 nM; Kd (PSMA-TriTAC (p8)-C362 [3]): 6.6 nM; Kd [4]: 9.7 nM; Kd [5]: 25.4 nM
cynomolgus PSMA (other, the methods describe only the human PSMA-Fc format; also called cyno PSMA) KSSSEATNITPKHNMKAFLDELKAENIKKFLHNFTQIPHLAGTEQNFQLAKQIQSQWKEFGLDSVELTHYDVLLSYPNKTHPNYISIINEDGNEIFNTSLFEPPPAGYENVSDIVPPFSAFSPQGMPEGDLVYVNYARTEDFFKLERDMKINCSGKIVIARYGKVFRGNKVKNAQLAGATGVILYSDPADYFAPGVKSYPDGWNLPGGGVQRGNILNLNGAGDPLTPGYPANEYAYRRGIAEAVGLPSIPVHPIGYYDAQKLLEKMGGSASPDSSWRGSLKVPYNVGPGFTGNFSTQKVKMHIHSTSEVTRIYNVIGTLRGAVEPDRYVILGGHRDSWVFGGIDPQSGAAVVHEIVRSFGTLKKEGWRPRRTILFASWDAEEFGLLGSTEWAEENSRLLQERGVAYINADSSIEGNYTLRVDCTPLMYSLVYNLTKELESPDEGFEGKSLYESWTKKSPSPEFSGMPRISKLGSGNDFEVFFQRLGIASGRARYTKNWETNKFSSYPLYHSVYETYELVEKFYDPMFKYHLTVAQVRGGMVFELANSVVLPFDCRDYAVVLRKYADKIYNISMKHPQEMKTYSVSFDSLFSAVKNFTEIASKFSERLRDFDKSNPILLRMMNDQLMFLERAFIDPLGLPDRPFYRHVIYAPSSHNKYAGESFPGIYDALFDIESKVDPSQAWGEVKRQISIATFTVQAAAETLSEVA	–	–	–	Kd (PSMA TriTAC (HDS)-C363 [6]): 540 nM; Kd (PSMA TriTAC (HTS)-C364 [7]): 663 nM
cynomolgus CD3 (receptor, UniProt Q95LI5 22-117, looked up, The methods describe only the human CD3-Flag-Fc format; also called cyno CD3e) QDGNEEMGSITQTPYQVSISGTTVILTCSQHLGSEAQWQHNGKNKEDSGDRLFLPEFSEMEQSGYYVCYPRGSNPEDASHHLYLKARVCENCMEMD	–	–	–	Kd (PSMA TriTAC (HDS)-C363 [8]): 5.2 nM; Kd (PSMA TriTAC (HTS)-C364 [9]): 3.8 nM; Kd (PSMA-TriTAC (p8)-C362 [10]): 4.3 nM; Kd [11]: 5.8 nM; Kd [12]: 4.7 nM
human CD3-Flag-Fc protein (Fc fusion, UniProt P07766 23-126, looked up, also called CD3e; not shown: Flag tag) DGNEEMGGITQTPYKVSISGTTVILTCPQYPGSEILWQHNDKNIGGDEDDKNIGSDEDHLSLKEFSELEQSGYYVCYPRGSKPEDANFYLYLRARVCENCMEMD	–	–	–	Kd [13]: 7.4 nM; Kd (PSMA TriTAC (HDS)-C363 [14]): 8 nM; Kd (PSMA TriTAC (HTS)-C364 [15]): 7.7 nM; Kd (PSMA-TriTAC (p8)-C362 [16]): 8.3 nM
Anti-PSMA wt sdAb.6his (VHH, Tested as supernatant of Expi293 cells; also called parental sdAb; parental anti-PSMA single domain antibody) VHH: EVQLVESGGGLVQPGGSLTLSCAASRFMISEYSMHWVRQAPGKGLEWVSTINPAGTTDYAESVKGRFTISRDNAKNTLYLQMNSLKPEDTAVYYCDGYGYRGQGTQVTVSS	15	0.0132	877000	–
anti-PSMA G55K sdAb.6his (VHH) VHH: EVQLVESGGGLVQPGGSLTLSCAASRFMISEYSMHWVRQAPGKGLEWVSTINPAKTTDYAESVKGRFTISRDNAKNTLYLQMNSLKPEDTAVYYCDGYGYRGQGTQVTVSS	4.5	0.00248	556000	–
anti-PSMA E31P sdAb.6his (VHH) VHH: EVQLVESGGGLVQPGGSLTLSCAASRFMISPYSMHWVRQAPGKGLEWVSTINPAGTTDYAESVKGRFTISRDNAKNTLYLQMNSLKPEDTAVYYCDGYGYRGQGTQVTVSS	9.5	0.00366	383000	–

Second part, led by results:

Kd (hFc · flag · hPSMA) [nM]	koff (hFc · flag · hPSMA) [s⁻¹]	kon (hFc · flag · hPSMA) [M⁻¹ s⁻¹]	Binder	also measured
6.7	0.00538	800000	anti-PSMA S33H T50D G97SsdAb.6his (VHH) VHH: EVQLVESGGGLVQPGGSLTLSCAASRFMISEYHMHWVRQAPGKGLEWVSDINPAGTTDYAESVKGRFTISRDNAKNTLYLQMNSLKPEDTAVYYCDSYGYRGQGTQVTVSS	–
0.21	0.000197	936000	anti-PSMA S33H G97SsdAb.6his (VHH) VHH: EVQLVESGGGLVQPGGSLTLSCAASRFMISEYHMHWVRQAPGKGLEWVSTINPAGTTDYAESVKGRFTISRDNAKNTLYLQMNSLKPEDTAVYYCDSYGYRGQGTQVTVSS	–
5.6	0.00461	822000	anti-PSMA T56Q sdAb.6his (VHH) VHH: EVQLVESGGGLVQPGGSLTLSCAASRFMISEYSMHWVRQAPGKGLEWVSTINPAGQTDYAESVKGRFTISRDNAKNTLYLQMNSLKPEDTAVYYCDGYGYRGQGTQVTVSS	–

Source: patent publication US20180161428A1 (HARPOON THERAPEUTICS, published 2018)
